Experimental data taken from patent US20230030529A1.

Molecular target: C4-aa^1355 monoclonal antibody
Assay: competitive C4-aa^1355 ECLIA, peptide in solution against the biotinylated coating peptide

Chain of C4-aa^1355 monoclonal antibody (VH, as listed by the source, chain 1 of 2): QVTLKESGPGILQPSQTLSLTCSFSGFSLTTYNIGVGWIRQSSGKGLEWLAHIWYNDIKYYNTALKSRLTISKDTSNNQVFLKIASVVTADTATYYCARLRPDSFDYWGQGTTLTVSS
Chain of C4-aa^1355 monoclonal antibody (VL, as listed by the source, chain 2 of 2): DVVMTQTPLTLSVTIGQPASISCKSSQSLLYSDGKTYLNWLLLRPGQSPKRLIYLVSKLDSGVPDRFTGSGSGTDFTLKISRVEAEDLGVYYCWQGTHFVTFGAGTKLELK

Q: Which signal left at the highest peptide concentration (% B/B0) does the source give for MGNSGPTGAV [Deselection peptide 2 …] here?
A: 65%
